Data reported in paper PMC4167861, “Mycobacterium tuberculosis Rho Is an NTPase with Distinct Kinetic Properties and a Novel RNA-Binding Subdomain” (PLoS ONE, 2014).

Target: the molecule itself
Assay: cross-linking; 2 ug MtbRho, 0.05% glutaraldehyde, 5 and 10 min at 37 C in T-buffer (KCl instead of K-glutamate), no RNA or ATP; 3.5-8% gradient SDS-PAGE; cross-linked RNAP as marker of ~400 kDa

B1: Mycobacterium tuberculosis Rho (enzyme)
chain: MTDTDLITAGESTDGKPSDAAATDPPDLNADEPAGSLATMVLPELRALANRAGVKGTSGMRKNELIAAIEEIRRQANGAPAVDRSAQEHDKGDRPPSSEAPATQGEQTPTEQIDSQSQQVRPERRSATREAGPSGSGERAGTAADDTDNRQGGQQDAKTEERGTDAGGDQGGDQQASGGQQARGDEDGEARQGRRGRRFRDRRRRGERSGDGAEAELREDDVVQPVAGILDVLDNYAFVRTSGYLPGPHDVYVSMNMVRKNGMRRGDAVTGAVRVPKEGEQPNQRQKFNPLVRLDSINGGSVEDAKKRPEFGKLTPLYPNQRLRLETSTERLTTRVIDLIMPIGKGQRALIVSPPKAGKTTILQDIANAITRNNPECHLMVVLVDERPEEVTDMQRSVKGEVIASTFDRPPSDHTSVAELAIERAKRLVEQGKDVVVLLDSITRLGRAYNNASPASGRILSGGVDSTALYPPKRFLGAARNIEEGGSLTIIATAMVETGSTGDTVIFEEFKGTGNAELKLDRKIAERRVFPAVDVNPSGTRKDELLLSPDEFAIVHKLRRVLSGLDSHQAIDLLMSQLRKTKNNYEFLVQVSKTTPGSMDSD
notes: also called MtbRho; recombinant MtbRho
  stoichiometry N: 6
